Measured values as given in patent publication US20100022624.

Biological target: α-tubulin (human, endogenous)

B1: HDAC6 (human, endogenous) (protein)
chain: MTSTGQDSTTTRQRRSRQNPQSPPQDSSVTSKRNIKKGAVPRSIPNLAEVKKKGKMKKLGQAMEEDLIVGLQGMDLNLEAEALAGTGLVLDEQLNEFHCLWDDSFPEGPERLHAIKEQLIQEGLLDRCVSFQARFAEKEELMLVHSLEYIDLMETTQYMNEGELRVLADTYDSVYLHPNSYSCACLASGSVLRLVDAVLGAEIRNGMAIIRPPGHHAQHSLMDGYCMFNHVAVAARYAQQKHRIRRVLIVDWDVHHGQGTQFTFDQDPSVLYFSIHRYEQGRFWPHLKASNWSTTGFGQGQGYTINVPWNQVGMRDADYIAAFLHVLLPVALEFQPQLVLVAAGFDALQGDPKGEMAATPAGFAQLTHLLMGLAGGKLILSLEGGYNLRALAEGVSASLHTLLGDPCPMLESPGAPCRSAQASVSCALEALEPFWEVLVRSTETVERDNMEEDNVEESEEEGPWEPPVLPILTWPVLQSRTGLVYDQNMMNHCNLWDSHHPEVPQRILRIMCRLEELGLAGRCLTLTPRPATEAELLTCHSAEYVGHLRATEKMKTRELHRESSNFDSIYICPSTFACAQLATGAACRLVEAVLSGEVLNGAAVVRPPGHHAEQDAACGFCFFNSVAVAARHAQTISGHALRILIVDWDVHHGNGTQHMFEDDPSVLYVSLHRYDHGTFFPMGDEGASSQIGRAAGTGFTVNVAWNGPRMGDADYLAAWHRLVLPIAYEFNPELVLVSAGFDAARGDPLGGCQVSPEGYAHLTHLLMGLASGRIILILEGGYNLTSISESMAACTRSLLGDPPPLLTLPRPPLSGALASITETIQVHRRYWRSLRVMKVEDREGPSSSKLVTKKAPQPAKPRLAERMTTREKKVLEAGMGKVTSASFGEESTPGQTNSETAVVALTQDQPSEAATGGATLAQTISEAAIGGAMLGQTTSEEAVGGATPDQTTSEETVGGAILDQTTSEDAVGGATLGQTTSEEAVGGATLAQTTSEAAMEGATLDQTTSEEAPGGTELIQTPLASSTDHQTPPTSPVQGTTPQISPSTLIGSLRTLELGSESQGASESQAPGEENLLGEAAGGQDMADSMLMQGSRGLTDQAIFYAVTPLPWCPHLVAVCPIPAAGLDVTQPCGDCGTIQENWVCLSCYQVYCGRYINGHMLQHHGNSGHPLVLSYIDLSAWCYYCQAYVHHQALLDVKNIAHQNKFGEDMPHPH
  amount of acetylated α-tubulin (immunoblot) after HDAC6 siRNA: only HSMCs transfected with siRNAs specific for HDAC6 displayed increased levels of acetylated α-tubulin
